Data published in US20240117018A1.

Columns and labels:
Experiment in all cases: cell-based or functional assay
[1] = biological target: HIV-1 Env of pseudovirus Ce1086_B2 (HIV-1)
[2] = biological target: HIV-1 Env of pseudovirus 62357_14_D3_4589 (HIV-1)
[3] = biological target: HIV-1 Env of pseudovirus Q461.e2 (HIV-1)
[4] = biological target: HIV-1 Env of pseudovirus CNE19 (HIV-1)
[5] = biological target: HIV-1 Env of pseudovirus Ce1176_A3 (HIV-1)
[6] = biological target: HIV-1 Env of pseudovirus ZM53M.PB12 (HIV-1)
[7] = biological target: HIV-1 Env of pseudovirus Q769.d22 (HIV-1)
[8] = biological target: HIV-1 Env of pseudovirus ZM135M.PL10a (HIV-1)
[9] = biological target: HIV-1 Env of pseudovirus ZM247v1(Rev-) (HIV-1)
[10] = biological target: HIV-1 Env of pseudovirus BF1266.431a (HIV-1)
[11] = biological target: HIV-1 Env of pseudovirus 249M B10 (HIV-1)
[12] = biological target: HIV-1 Env of pseudovirus Q259.d2.17 (HIV-1)
[13] = biological target: HIV-1 Env of pseudovirus MS208.A1 (HIV-1)
[14] = biological target: HIV-1 Env of pseudovirus TRO.11 (HIV-1)
[15] = biological target: HIV-1 Env of pseudovirus CAAN5342.A2 (HIV-1)
[16] = biological target: HIV-1 Env of pseudovirus ZM109F.PB4 (HIV-1)
[17] = biological target: HIV-1 Env of pseudovirus CNE58 (HIV-1)
[18] = biological target: HIV-1 Env of pseudovirus CNE21 (HIV-1)
[19] = biological target: HIV-1 Env of pseudovirus Ce2060_G9 (HIV-1)
[20] = biological target: HIV-1 Env of pseudovirus CNE17 (HIV-1)
[21] = biological target: HIV-1 Env of pseudovirus 7030102001E5(Rev-) (HIV-1)
[22] = biological target: HIV-1 Env of pseudovirus HIV-0013095-2.11 (HIV-1)
[23] = biological target: HIV-1 Env of pseudovirus Q23.17 (HIV-1)
[24] = biological target: HIV-1 Env of pseudovirus AC10.0.29 (HIV-1)
[25] = biological target: HIV-1 Env of pseudovirus 1394C9G1(Rev-) (HIV-1)
[26] = biological target: HIV-1 Env of pseudovirus WEAU_d15_410_787 (HIV-1)
[27] = biological target: HIV-1 Env of pseudovirus SC422661.8 (HIV-1)
[28] = biological target: HIV-1 Env of pseudovirus HIV-16055-2.3 (HIV-1)

8ANC195 (antibody)
IC50 [1]: 4.42 µg/mL | IC80 [1]: 19.1 µg/mL | IC50 [2]: > 50 µg/mL | IC80 [2]: > 50 µg/mL | IC50 [3]: 0.63 µg/mL | IC80 [3]: 2.51 µg/mL | IC50 [4]: 0.29 µg/mL | IC80 [4]: 1.73 µg/mL | IC50 [5]: 4.45 µg/mL | IC80 [5]: 35.2 µg/mL | IC50 [6]: > 30 µg/mL | IC80 [6]: > 30 µg/mL | IC50 [7]: 0.26 µg/mL | IC80 [7]: 1.2 µg/mL | IC50 [8]: > 50 µg/mL | IC80 [8]: > 50 µg/mL | IC50 [9]: 3.41 µg/mL | IC80 [9]: 25.1 µg/mL | IC50 [10]: > 50 µg/mL | IC80 [10]: > 50 µg/mL | IC50 [11]: > 50 µg/mL | IC80 [11]: > 50 µg/mL | IC50 [12]: > 50 µg/mL | IC80 [12]: > 50 µg/mL | IC50 [13]: > 50 µg/mL | IC80 [13]: > 50 µg/mL | IC50 [14]: 0.18 µg/mL | IC80 [14]: 0.89 µg/mL | IC50 [15]: > 50 µg/mL | IC80 [15]: > 50 µg/mL | IC50 [16]: > 30 µg/mL | IC80 [16]: > 30 µg/mL | IC50 [17]: > 50 µg/mL | IC80 [17]: > 50 µg/mL | IC50 [18]: 0.27 µg/mL | IC80 [18]: 1.52 µg/mL | IC50 [19]: 6.2 µg/mL | IC80 [19]: > 50 µg/mL | IC50 [20]: 2.59 µg/mL | IC80 [20]: 11.1 µg/mL | IC50 [21]: 0.86 µg/mL | IC80 [21]: 8.32 µg/mL | IC50 [22]: 0.32 µg/mL | IC80 [22]: 1.85 µg/mL | IC50 [23]: 2.55 µg/mL | IC80 [23]: 2.55 µg/mL | IC50 [24]: 0.88 µg/mL | IC80 [24]: 7 µg/mL | IC50 [25]: > 50 µg/mL | IC80 [25]: > 50 µg/mL | IC50 [26]: > 50 µg/mL | IC80 [26]: > 50 µg/mL | IC50 [27]: 0.29 µg/mL | IC80 [27]: 4.67 µg/mL | IC50 [28]: 15.3 µg/mL | IC80 [28]: > 50 µg/mL

NIH 45-46 (antibody)
IC50 [1]: 0.04 µg/mL | IC80 [1]: 0.28 µg/mL | IC50 [2]: 0.05 µg/mL | IC80 [2]: 0.22 µg/mL | IC50 [3]: 0.06 µg/mL | IC80 [3]: 0.32 µg/mL | IC50 [4]: 0.07 µg/mL | IC80 [4]: 0.37 µg/mL | IC50 [5]: 1.29 µg/mL | IC80 [5]: 5.55 µg/mL | IC50 [6]: 0.65 µg/mL | IC80 [6]: 0.65 µg/mL | IC50 [7]: 0.01 µg/mL | IC80 [7]: 0.04 µg/mL | IC50 [8]: 0.36 µg/mL | IC80 [8]: 3.11 µg/mL | IC50 [9]: 1.64 µg/mL | IC80 [9]: > 50 µg/mL | IC50 [10]: 0.01 µg/mL | IC80 [10]: 0.03 µg/mL | IC50 [11]: 0.04 µg/mL | IC80 [11]: 0.17 µg/mL | IC50 [12]: 0.01 µg/mL | IC80 [12]: 0.06 µg/mL | IC50 [13]: 0.09 µg/mL | IC80 [13]: 0.6 µg/mL | IC50 [14]: 1.9 µg/mL | IC80 [14]: 9.56 µg/mL | IC50 [15]: 0.11 µg/mL | IC80 [15]: 0.33 µg/mL | IC50 [16]: 0.22 µg/mL | IC80 [16]: 0.22 µg/mL | IC50 [17]: 0.25 µg/mL | IC80 [17]: 1.49 µg/mL | IC50 [18]: 7.53 µg/mL | IC80 [18]: > 50 µg/mL | IC50 [19]: 0.14 µg/mL | IC80 [19]: 0.48 µg/mL | IC50 [20]: 0.15 µg/mL | IC80 [20]: 0.55 µg/mL | IC50 [21]: 0.14 µg/mL | IC80 [21]: 0.63 µg/mL | IC50 [22]: 0.01 µg/mL | IC80 [22]: 0.03 µg/mL | IC50 [23]: 0.14 µg/mL | IC80 [23]: 0.6 µg/mL | IC50 [24]: 0.42 µg/mL | IC80 [24]: 1.49 µg/mL | IC50 [25]: 0.09 µg/mL | IC80 [25]: 0.38 µg/mL | IC50 [26]: 0.01 µg/mL | IC80 [26]: 0.03 µg/mL | IC50 [27]: 0.01 µg/mL | IC80 [27]: 0.07 µg/mL | IC50 [28]: 0.02 µg/mL | IC80 [28]: 0.06 µg/mL
